From EP4737482A1 (Atheon Bio, Inc., dated 2026)

Legend:
human MYCT1 (hMYCT1) [1] = target: T1, human MYCT1 (hMYCT1) (human, UniProt Q8N699 1-235, limits assumed); experiment: SPR koff ranking, single curve, antibody captured via anti-human Fc IgG, 10 nM MYCT1 as analyte, 1:1 binding model
T1 construct: also called MYC Target 1
T1 sequence: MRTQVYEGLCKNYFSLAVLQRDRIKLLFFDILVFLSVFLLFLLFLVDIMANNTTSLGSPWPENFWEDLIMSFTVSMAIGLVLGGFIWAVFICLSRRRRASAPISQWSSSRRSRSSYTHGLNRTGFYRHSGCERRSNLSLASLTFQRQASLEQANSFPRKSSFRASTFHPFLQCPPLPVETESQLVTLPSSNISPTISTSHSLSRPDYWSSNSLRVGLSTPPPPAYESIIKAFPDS

human MYCT1 (hMYCT1) [2] = target: T1, human MYCT1 (hMYCT1); experiment: SPR full kinetics, multicycle, antibody captured via anti-human Fc IgG, MYCT1 0.625-10 nM as analyte, 1:1 binding model
human MYCT1 (hMYCT1) [3] = target: T1, human MYCT1 (hMYCT1); experiment: SPR koff ranking, 1:1 binding model
human MYCT1 (hMYCT1) [4] = target: T1, human MYCT1 (hMYCT1); experiment: SPR full kinetics (Biacore 8K), antibody captured via anti-human Fc IgG, MYCT1 as analyte, steady-state affinity model
human MYCT1 (hMYCT1) [5] = target: T1, human MYCT1 (hMYCT1); experiment: SPR (Biacore 8K), antibody captured via anti-human Fc IgG, MYCT1 as analyte, steady-state affinity model
human MYCT1 (hMYCT1) [6] = target: T1, human MYCT1 (hMYCT1); experiment: as above; remark: listed apart in the source

B1: 11B6 parent antibody (antibody, V domains shown)
VH: EVQLVESGGGLVKPGGSLKLSCAASGFTFSDFGIHWVRQAPEKGLEWVGYISSGSRTIHYADTVKGRFTISRDNAKNTLFLQMTNLRSEDTAIYYCARRDWDPEWLAYWGQGTLVTISA
VL: DVVMTQAPLSLPVSLGDQASISCRSSLSLVHSNGHTYLHWYLQKPGQSPKLLIYKVSNRFSGVPDRFSGSGSGTDFTLKIRRVEAEDLGVYFCSQSTHVPFTFGSGTKLEIK
notes: Mouse parental variable domains; also called parent antibody (11B6); 11B6 clone
Human MYCT1 (hMYCT1) [1]
  koff: 0.00496 s⁻¹
Human MYCT1 (hMYCT1) [2]
  Kd: 1.2 nM
  koff: 0.00411 s⁻¹
  kon: 3.44e+06 M⁻¹ s⁻¹
Human MYCT1 (hMYCT1) [3]
  koff: 0.00456 s⁻¹

B2: 2B4-z2-p7-uIgG1K (antibody, V domains shown)
VH: QVQLVQSGAEVKKPGASVKVSCKASGYTFTDYNMHWVRQAPGQGLEWMGYINPNSGGSSYNRKFKGRVTMTTDTSTSTAYMELRSLRSDDTAVYYCATRFDVWGQGTTVTVSS
VL: DVVMTQSPLSLPVTLGQPASISCKSSQSLLFSDAKTYLNWLQQRPGQSPRRLIYLVSKLDSGVPDRFSGSGSGTDFTLKISRVEAEDVGVYYCWQGTHFPQTFGGGTKVEIK
Human MYCT1 (hMYCT1) [4]
  Kd: 484 nM

B3: 2B4-z8-p7-uIgG1K (antibody, V domains shown)
VH: QVQLVQSGAEVKKPGASVKVSCKASGYTFTDYNMHWVRQAPGQGLEWIGYINPNSGGSSYNRKFKGRVTMTTDTSTSTAYMELRSLRSDDTAVYYCATRFDVWGQGTTVTVSS
VL: DVVMTQSPLSLPVTLGQPASISCKSSQSLLFSDAKTYLNWLQQRPGQSPRRLIYLVSKLDSGVPDRFSGSGSGTDFTLKISRVEAEDVGVYYCWQGTHFPQTFGGGTKVEIK
Human MYCT1 (hMYCT1) [4]
  Kd: 586 nM

B4: 2B4 parent antibody (antibody, V domains shown)
VH: EVQLQQSGPELVKPGASVKMSCKASGYTFTDYNMHWVRQSHGKGLEWIGYINPNNGGSSYNRKFKGKATLTVNKSSRSASMELRSLTSEDSAVYYCATRFDVWGTGTTVTVSS
VL: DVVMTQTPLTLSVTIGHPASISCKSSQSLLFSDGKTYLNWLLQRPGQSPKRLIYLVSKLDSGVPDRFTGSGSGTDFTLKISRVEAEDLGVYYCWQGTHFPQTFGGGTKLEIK
notes: Mouse parental variable domains; also called parent antibody (2B4); 2B4 clone
Human MYCT1 (hMYCT1) [4]
  Kd: 281 nM
Human MYCT1 (hMYCT1) [5]
  Kd: 273 nM
Human MYCT1 (hMYCT1) [6]
  Kd: 181 nM
